Earlier results as cited in article PMC11329504, “Identification of novel small molecule-based strategies of COL7A1 upregulation and readthrough activity for the treatment of recessive dystrophic epidermolysis bullosa” (Scientific Reports, 2024).
pKd: −log10 of the molar value.

Biological target: Laminin 5 (Homo sapiens) (UniProt Q16787)

Chain of Collagen VII NC1 NC1 (Q02388 17-1253): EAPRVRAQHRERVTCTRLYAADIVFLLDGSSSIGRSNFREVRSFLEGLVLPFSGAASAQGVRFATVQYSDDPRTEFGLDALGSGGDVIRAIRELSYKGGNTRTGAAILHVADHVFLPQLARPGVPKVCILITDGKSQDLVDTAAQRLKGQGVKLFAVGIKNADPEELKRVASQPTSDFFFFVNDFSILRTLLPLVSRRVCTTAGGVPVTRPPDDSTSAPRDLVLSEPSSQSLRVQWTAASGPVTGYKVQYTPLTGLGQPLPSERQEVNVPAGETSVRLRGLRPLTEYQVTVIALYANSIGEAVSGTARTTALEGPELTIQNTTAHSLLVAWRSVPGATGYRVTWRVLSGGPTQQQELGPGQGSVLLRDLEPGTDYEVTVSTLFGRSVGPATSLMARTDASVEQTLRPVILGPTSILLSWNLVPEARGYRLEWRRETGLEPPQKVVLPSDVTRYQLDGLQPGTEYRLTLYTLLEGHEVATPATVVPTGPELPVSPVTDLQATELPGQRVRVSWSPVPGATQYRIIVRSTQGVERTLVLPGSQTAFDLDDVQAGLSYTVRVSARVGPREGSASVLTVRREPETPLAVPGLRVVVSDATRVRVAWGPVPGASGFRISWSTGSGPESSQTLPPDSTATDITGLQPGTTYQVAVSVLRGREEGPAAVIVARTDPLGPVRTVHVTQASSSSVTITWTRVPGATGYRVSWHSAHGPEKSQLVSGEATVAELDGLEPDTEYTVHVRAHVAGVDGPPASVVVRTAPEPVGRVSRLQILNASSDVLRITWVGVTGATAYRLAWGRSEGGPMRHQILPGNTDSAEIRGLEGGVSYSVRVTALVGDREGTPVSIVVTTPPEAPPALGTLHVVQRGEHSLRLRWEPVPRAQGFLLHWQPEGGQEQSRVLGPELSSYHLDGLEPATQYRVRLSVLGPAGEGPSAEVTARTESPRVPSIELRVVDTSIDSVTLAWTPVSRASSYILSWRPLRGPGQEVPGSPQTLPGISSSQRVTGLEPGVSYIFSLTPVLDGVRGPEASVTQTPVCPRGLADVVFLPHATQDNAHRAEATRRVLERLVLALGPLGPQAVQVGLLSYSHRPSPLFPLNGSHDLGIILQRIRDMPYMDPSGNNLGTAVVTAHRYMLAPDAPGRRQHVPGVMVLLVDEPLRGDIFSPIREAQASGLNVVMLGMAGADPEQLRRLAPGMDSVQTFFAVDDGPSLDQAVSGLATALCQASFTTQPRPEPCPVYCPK

pKd: 7.32
Substance: Collagen VII NC1 NC1 (from UniProt Q02388)
